Data published in patent US20220177587A1, “METHODS AND USES OF VARIANT CD80 FUSION PROTEINS AND RELATED CONSTRUCTS” (Alpine Immune Sciences, Inc., priority 2018, published 2022).

Assays:
human PD-L1 (human) [1] = biological target: human PD-L1 (human) (UniProt Q9NZQ7); test: flow cytometry, CHO cells expressing huPD-L1
CD28 (human) [2] = biological target: CD28 (human) (UniProt P10747); test: flow cytometry, Jurkat/IL2 reporter cells (CD28)
human CTLA-4 (human) = human CTLA-4 (human) (UniProt P16410); test: flow cytometry, CHO cells expressing huCTLA4
human CTLA-4 (human), sequence (P16410 36-223): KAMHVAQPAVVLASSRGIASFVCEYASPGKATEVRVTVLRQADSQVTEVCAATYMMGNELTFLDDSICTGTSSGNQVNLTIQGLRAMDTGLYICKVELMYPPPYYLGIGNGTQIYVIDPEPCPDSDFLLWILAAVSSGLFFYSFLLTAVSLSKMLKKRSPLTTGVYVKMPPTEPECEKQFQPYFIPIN

CD28 (human) [3] = biological target: CD28 (human) (UniProt P10747); test: flow cytometry, Jurkat/IL2 reporter cells (endogenous CD28)
CD28 (human) [4] = biological target: CD28 (human) (UniProt P10747); test: flow cytometry, Jurkat cells (CD28)
human PD-L1 (human) [5] = biological target: human PD-L1 (human) (UniProt Q9NZQ7); test: flow cytometry, CHO cells stably expressing PD-L1

human PD-L1 (human), sequence (Q9NZQ7 19-290): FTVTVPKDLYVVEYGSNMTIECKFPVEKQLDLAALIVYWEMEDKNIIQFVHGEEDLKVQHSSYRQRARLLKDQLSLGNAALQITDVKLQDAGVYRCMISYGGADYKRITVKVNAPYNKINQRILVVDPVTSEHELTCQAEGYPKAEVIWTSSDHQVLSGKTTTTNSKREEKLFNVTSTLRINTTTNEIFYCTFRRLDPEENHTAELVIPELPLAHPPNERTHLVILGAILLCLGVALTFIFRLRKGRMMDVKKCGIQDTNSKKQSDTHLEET

Binder	MFI at 33.3 nM (human PD-L1 (human) [1])	MFI at 33.3 nM (CD28 (human) [2])	MFI at 33.3 nM (human CTLA-4 (human))	also measured
variant CD80 IgV-Fc E35D/M47L/A71G/L85Q (Fc fusion) VIHVTKEVKEVATLSCGHNVSVEELAQTRIYWQKDKKMVLTMMSGDLNIWPEYKNRTIFDITNNLSIVILGLRPSDEGTYECVVQKYEKDAFKREHLAEVTLSVKAD	–	1440 MFI	–	–
variant CD80 IgV-Fc E35D/M47V/A71G (Fc fusion) VIHVTKEVKEVATLSCGHNVSVEELAQTRIYWQKDKKMVLTMMSGDVNIWPEYKNRTIFDITNNLSIVILGLRPSDEGTYECVVLKYEKDAFKREHLAEVTLSVKAD	36200 MFI	6360 MFI	–	–
variant CD80 IgV-Fc E35D/A71G (Fc fusion) VIHVTKEVKEVATLSCGHNVSVEELAQTRIYWQKDKKMVLTMMSGDMNIWPEYKNRTIFDITNNLSIVILGLRPSDEGTYECVVLKYEKDAFKREHLAEVTLSVKAD	34100 MFI	–	184000 MFI	–
variant CD80 IgV-Fc E35D/M47V/N48T/L85Q (Fc fusion) VIHVTKEVKEVATLSCGHNVSVEELAQTRIYWQKDKKMVLTMMSGDVTIWPEYKNRTIFDITNNLSIVILALRPSDEGTYECVVQKYEKDAFKREHLAEVTLSVKAD	35500 MFI	692 MFI	–	–
variant CD80 IgV-Fc E35D/D46E/M47V/A71D/D90G (Fc fusion) VIHVTKEVKEVATLSCGHNVSVEELAQTRIYWQKDKKMVLTMMSGEVNIWPEYKNRTIFDITNNLSIVILDLRPSDEGTYECVVLKYEKGAFKREHLAEVTLSVKAD	32400 MFI	–	275000 MFI	–
variant CD80 IgV-Fc (inert) H18Y/A26P/E35D/M47V/V68M/A71G (Fc fusion) VIHVTKEVKEVATLSCGYNVSVEELPQTRIYWQKDKKMVLTMMSGDVNIWPEYKNRTIFDITNNLSIMILGLRPSDEGTYECVVLKYEKDAFKREHLAEVTLSVKAD	–	–	–	MFI at 33.3 nM (CD28 (human) [4]): 6910 MFI; MFI at 33.3 nM (human PD-L1 (human) [5]): 51500 MFI
variant CD80 IgV-Fc E35D/D46E/M47V/A71D (Fc fusion) VIHVTKEVKEVATLSCGHNVSVEELAQTRIYWQKDKKMVLTMMSGEVNIWPEYKNRTIFDITNNLSIVILDLRPSDEGTYECVVLKYEKDAFKREHLAEVTLSVKAD	549 MFI	–	–	–
variant CD80 IgV-Fc E35D/M47V/A71G/E88D (Fc fusion) VIHVTKEVKEVATLSCGHNVSVEELAQTRIYWQKDKKMVLTMMSGDVNIWPEYKNRTIFDITNNLSIVILGLRPSDEGTYECVVLKYDKDAFKREHLAEVTLSVKAD	37100 MFI	6240 MFI	212000 MFI	–
variant CD80 IgV-Fc E35D/K37E/M47V/N48D/L85Q/D90N (Fc fusion) VIHVTKEVKEVATLSCGHNVSVEELAQTRIYWQKDKEMVLTMMSGDVDIWPEYKNRTIFDITNNLSIVILALRPSDEGTYECVVQKYEKNAFKREHLAEVTLSVKAD	26500 MFI	–	–	–
variant CD80 IgV-Fc E35D/D46V/M47L/V68M/L85Q/E88D (Fc fusion) VIHVTKEVKEVATLSCGHNVSVEELAQTRIYWQKDKKMVLTMMSGVLNIWPEYKNRTIFDITNNLSIMILALRPSDEGTYECVVQKYDKDAFKREHLAEVTLSVKAD	137000 MFI	–	–	–
variant CD80 IgV-Fc E35D/T41S/M43I/A71G/D90G (Fc fusion) VIHVTKEVKEVATLSCGHNVSVEELAQTRIYWQKDKKMVLSMISGDMNIWPEYKNRTIFDITNNLSIVILGLRPSDEGTYECVVLKYEKGAFKREHLAEVTLSVKAD	–	–	208000 MFI	–
CD80 ECD (SEQ ID NO:2)-Fc (inert) with GSG4S linker (Fc fusion) VIHVTKEVKEVATLSCGHNVSVEELAQTRIYWQKEKKMVLTMMSGDMNIWPEYKNRTIFDITNNLSIVILALRPSDEGTYECVVLKYEKDAFKREHLAEVTLSVKADFPTPSISDFEIPTSNIRRIICSTSGGFPEPHLSWLENGEELNAINTTVSQDPETELYAVSSKLDFNMTTNHSFMCLIKYGHLRVNQTFNWNTTKQEHFPDNGSGGGGS	–	–	–	MFI at 33.3 nM (CD28 (human) [4]): 37 MFI; MFI at 33.3 nM (human PD-L1 (human) [5]): 35 MFI

More lines, main results first:

MFI at 33.3 nM (human PD-L1 (human) [1])	MFI at 33.3 nM (CD28 (human) [2])	MFI at 33.3 nM (human CTLA-4 (human))	Binder	also measured
43800 MFI	7270 MFI	152000 MFI	variant CD80 IgV-Fc V22L/Q27H/E35D/M47I/A71G (Fc fusion) VIHVTKEVKEVATLSCGHNVSLEELAHTRIYWQKDKKMVLTMMSGDINIWPEYKNRTIFDITNNLSIVILGLRPSDEGTYECVVLKYEKDAFKREHLAEVTLSVKAD	–
39100 MFI	–	–	variant CD80 IgV-Fc Q33K/E35D/M47V/K89E/K93R (Fc fusion) VIHVTKEVKEVATLSCGHNVSVEELAQTRIYWKKDKKMVLTMMSGDVNIWPEYKNRTIFDITNNLSIVILALRPSDEGTYECVVLKYEEDAFRREHLAEVTLSVKAD	MFI at 33.3 nM (CD28 (human) [3]): 276 MFI
–	527 MFI	–	variant CD80 IgV-Fc V22D/E35D/M47L/L70M/L97Q (Fc fusion) VIHVTKEVKEVATLSCGHNVSDEELAQTRIYWQKDKKMVLTMMSGDLNIWPEYKNRTIFDITNNLSIVIMALRPSDEGTYECVVLKYEKDAFKREHQAEVTLSVKAD	–
52400 MFI	3540 MFI	231000 MFI	variant CD80 IgV-Fc H18Y/A26E/E35D/M47L/L85Q/D90G (Fc fusion) VIHVTKEVKEVATLSCGYNVSVEELEQTRIYWQKDKKMVLTMMSGDLNIWPEYKNRTIFDITNNLSIVILALRPSDEGTYECVVQKYEKGAFKREHLAEVTLSVKAD	–
–	–	261000 MFI	variant CD80 IgV-Fc H18Y/E35D/N48K (Fc fusion) VIHVTKEVKEVATLSCGYNVSVEELAQTRIYWQKDKKMVLTMMSGDMKIWPEYKNRTIFDITNNLSIVILALRPSDEGTYECVVLKYEKDAFKREHLAEVTLSVKAD	–
–	542 MFI	256000 MFI	variant CD80 IgV-Fc V22D/E35D/M47L/L85Q (Fc fusion) VIHVTKEVKEVATLSCGHNVSDEELAQTRIYWQKDKKMVLTMMSGDLNIWPEYKNRTIFDITNNLSIVILALRPSDEGTYECVVQKYEKDAFKREHLAEVTLSVKAD	–
1350 MFI	–	437000 MFI	variant CD80 IgV-Fc V22A/E35D/V68E/A71D (Fc fusion) VIHVTKEVKEVATLSCGHNVSAEELAQTRIYWQKDKKMVLTMMSGDMNIWPEYKNRTIFDITNNLSIEILDLRPSDEGTYECVVLKYEKDAFKREHLAEVTLSVKAD	MFI at 33.3 nM (CD28 (human) [3]): 14000 MFI
44400 MFI	2840 MFI	–	variant CD80 IgV-Fc E35D/T41S/M43I/M47V/A71G (Fc fusion) VIHVTKEVKEVATLSCGHNVSVEELAQTRIYWQKDKKMVLSMISGDVNIWPEYKNRTIFDITNNLSIVILGLRPSDEGTYECVVLKYEKDAFKREHLAEVTLSVKAD	–
5800 MFI	88.1 MFI	–	variant CD80 IgV-Fc M47L/L85Q (Fc fusion) VIHVTKEVKEVATLSCGHNVSVEELAQTRIYWQKEKKMVLTMMSGDLNIWPEYKNRTIFDITNNLSIVILALRPSDEGTYECVVQKYEKDAFKREHLAEVTLSVKAD	–
–	3100 MFI	209000 MFI	variant CD80 IgV-Fc E35D/T41S/M43I/M47L/A71G (Fc fusion) VIHVTKEVKEVATLSCGHNVSVEELAQTRIYWQKDKKMVLSMISGDLNIWPEYKNRTIFDITNNLSIVILGLRPSDEGTYECVVLKYEKDAFKREHLAEVTLSVKAD	–
